Positions of bridges follow the written chain, without caps; N, C: chain ends. No end group written: not given here. COCH2 = acetyl group that carries the bridge
Biological target: T1, Recombinant Human FGFR1 alpha (IIIc) Fc Chimera Protein (Homo sapiens, UniProt P11362)
T1 construct: purchased R&D systems 658-FR-050
Test: ELISA binding affinity of enzymatically synthesized peptide to FGFR
Conditions: ELISA luminescence signal at 10 nmol/L peptide, SEQ ID NO: 239 standardized to 1; enzyme synthesis product
Summary of the method: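 Cell-free PUREfrex-translated cyclic peptides (Myc/HiBiT-tagged, quantified by HiBiT luminescence) bound 3 h at room temperature to immobilized FGFR1α(IIIc)-Fc, detected with anti-Myc and chemiluminescence. FGFR-specific signal at 10 nmol/L normalized to a reference cyclic peptide and graded A–D.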

T1 sequence (P11362 with tags, fused parts or gaps limits assumed): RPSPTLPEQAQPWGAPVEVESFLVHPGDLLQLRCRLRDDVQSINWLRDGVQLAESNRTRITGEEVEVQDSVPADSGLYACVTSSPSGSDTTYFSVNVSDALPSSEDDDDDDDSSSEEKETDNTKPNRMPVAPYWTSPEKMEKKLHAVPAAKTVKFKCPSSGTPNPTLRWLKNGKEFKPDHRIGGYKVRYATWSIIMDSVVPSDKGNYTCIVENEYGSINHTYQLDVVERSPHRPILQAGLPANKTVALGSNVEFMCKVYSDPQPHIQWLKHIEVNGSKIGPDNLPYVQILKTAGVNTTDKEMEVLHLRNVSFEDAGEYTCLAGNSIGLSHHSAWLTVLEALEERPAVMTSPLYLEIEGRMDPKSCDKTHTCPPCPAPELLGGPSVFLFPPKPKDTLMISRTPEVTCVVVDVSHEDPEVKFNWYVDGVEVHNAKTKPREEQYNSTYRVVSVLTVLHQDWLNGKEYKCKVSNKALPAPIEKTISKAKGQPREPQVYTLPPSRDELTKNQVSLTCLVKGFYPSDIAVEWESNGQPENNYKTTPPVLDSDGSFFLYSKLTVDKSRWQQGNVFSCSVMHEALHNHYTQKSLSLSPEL

Substance	Evaluation result of binding affinity to FGFR
202 (ICVYTFDAHAHSLHTALTK(COCH2)I; thioether 2-19 (inferred)) [compound 202]	A (0.7 or more)
210 (ICVYTFDAHAHSLHAAITK(COCH2)I; thioether 2-19 (inferred)) [compound 210]	C (0.1 or more and less than 0.5)
232 (ICVYTFDAHAHSLHAALTK(COCH2)Q; thioether 2-19 (inferred)) [compound 232]	A (0.7 or more)
239 (ACVWTFDRHAQEISQALHKV; not fully specified (residue 19, bridges); also: cyclic peptide, ring not given here) [compound 239]	A (0.7 or more)
196 (ICVYTFDAHAHSLHFALTK(COCH2)I; thioether 2-19 (inferred)) [compound 196]	C (0.1 or more and less than 0.5)
259 (TCNIWQFNPAARWGFHLVYK(COCH2)Y; thioether 2-20 (inferred)) [compound 259]	C (0.1 or more and less than 0.5)
252 (RCVYSFDPARYPYHLKK(COCH2)V; thioether 2-17 (inferred)) [compound 252]	A (0.7 or more)
67 (ICVYIFDAHAHSLHAALTK(COCH2)I; thioether 2-19 (inferred)) [compound 67]	C (0.1 or more and less than 0.5)
201 (ICVYTFDAHAHSLHSALTK(COCH2)I; thioether 2-19 (inferred)) [compound 201]	A (0.7 or more)
164 (ICVYTFDAHAHSPHAALTK(COCH2)I; thioether 2-19 (inferred)) [compound 164]	C (0.1 or more and less than 0.5)
182 (ICVYTFDAHAHSLFAALTK(COCH2)I; thioether 2-19 (inferred)) [compound 182]	C (0.1 or more and less than 0.5)
99 (ICVYTFDTHAHSLHAALTK(COCH2)I; thioether 2-19 (inferred)) [compound 99]	C (0.1 or more and less than 0.5)
219 (ICVYTFDAHAHSLHAALNK(COCH2)I; thioether 2-19 (inferred)) [compound 219]	A (0.7 or more)
236 (ICVYTFDAHAHSLHAALTK(COCH2)H; thioether 2-19 (inferred)) [compound 236]	A (0.7 or more)
316 (FCVYTFDAHAHSLDAALTK(COCH2)Q; thioether 2-19 (inferred)) [compound 316]	A (0.7 or more)
57 (ICIYTFDAHAHSLHAALTK(COCH2)I; thioether 2-19 (inferred)) [compound 57]	A (0.7 or more)
248 (QCWLQGPYWSDIKIYIYQHDK(COCH2)Y; thioether 2-21 (inferred)) [compound 248]	C (0.1 or more and less than 0.5)
302 (ICVYTFDAHAHSLDDALNK(COCH2)I; thioether 2-19 (inferred)) [compound 302]	A (0.7 or more)
149 (ICVYTFDAHAHLLHAALTK(COCH2)I; thioether 2-19 (inferred)) [compound 149]	C (0.1 or more and less than 0.5)
52 (ECVYTFDAHAHSLHAALTK(COCH2)I; thioether 2-19 (inferred)) [compound 52]	A (0.7 or more)
318 (FCVYTFDAHAHSLDDALTK(COCH2)Q; thioether 2-19 (inferred)) [compound 318]	A (0.7 or more)
77 (ICVYTWDAHAHSLHAALTK(COCH2)I; thioether 2-19 (inferred)) [compound 77]	B (0.5 or more and less than 0.7)
82 (ICVYTFPAHAHSLHAALTK(COCH2)I; thioether 2-19 (inferred)) [compound 82]	C (0.1 or more and less than 0.5)
